In US20230295331A1 (PROMAB BIOTECHNOLOGIES, published 2023):
“And” between values parts separate entries of the source, which are not always exact repeats. Equal values may be shown once.

What was measured:
[1] = molecular target: T1, CS1 protein (SLAM family member 7, CD319) on cells (human, UniProt Q9NQ25 23-335); test: flow cytometry binding titration on CHO-CS1 cells
T1 construct: The cells are CHO-CS1 (bought from BPS Bioscience), Hela-CS1 (transduced with CS1 cDNA lentivirus) and the myeloma lines, which carry CS1 of their own; also called CHO-CS1 cells; Hela-CS1 cells
T1 sequence: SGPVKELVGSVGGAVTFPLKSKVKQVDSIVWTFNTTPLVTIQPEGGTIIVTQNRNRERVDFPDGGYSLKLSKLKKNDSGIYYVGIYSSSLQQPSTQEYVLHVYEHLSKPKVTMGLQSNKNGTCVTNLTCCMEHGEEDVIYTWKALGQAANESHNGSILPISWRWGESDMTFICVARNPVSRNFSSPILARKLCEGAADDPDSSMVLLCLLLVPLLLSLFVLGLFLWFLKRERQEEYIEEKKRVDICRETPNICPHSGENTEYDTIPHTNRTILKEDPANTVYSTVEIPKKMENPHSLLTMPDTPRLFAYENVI

[2] = molecular target: T1, CS1 protein (SLAM family member 7, …); test: binding titration by flow cytometry on CHO-CS1 cells

EC50 (read off the curve) [1]: ~0.7 µg/mL
Kd [2]: 5.3 nM and 0.8 µg/mL
B1: mouse monoclonal anti-human CS1 antibody, clone 7A8D5 (antibody, V domains shown)
VH: VQLQQSGPEVVRPGVSVKISCKGSGYTFTDYAIHWVKQSHAKSLEWIGVINTYNGNTNYNQKFKGKATMTVDKSSSTAYMELARLTSEDSAIYYCTRTGYYYGPSHYFDYWGQGTTLTVSS
VL: DIVLTQSPASLTVSLGQRATMSCRASKSVSTSGYSYVHWYQQKPGQPPKLLIYLASNLESGVPARFSASGSGTDFTLNIHPVEEEDAATYYCQHSRELPWTFGGGTKLEIKR
notes: Mouse monoclonal antibody from a hybridoma, purified on a Protein G column; also called anti-CS1 antibody clone 7A8D5; CS1 clone 7A8D5
